From the supplement of paper PMC9233669
Fewer inactive variants are shown than the library holds.

What was measured:
biotinyl-Val-oxazolone = assay: self-aminoacylation, catalytic enhancement (BVO) (fold over background); higher = more active; k-Seq, kA / k0A0; sequences stand for … in GGGAAUGGAUCCACAUCUACGAAUUC…UUCACUGCAGACUUGACGAAGCUG
How it was run: (§1)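 Mutagenized RNA pools (0.43 μM; 21-nt variable region) were treated with 2–1250 μM of each biotinyl-aminoacyl-oxazolone. Conditions were 50 μL HEPES/NaCl/KCl/MgCl2/CaCl2 buffer, 5% acetonitrile, pH 6.9–7.0, room temperature, 90 minutes. Catalytic enhancement, the median kA relative to the uncatalyzed rate, was derived from streptavidin capture, qPCR and Illumina sequencing.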

biotinyl-Phe-oxazolone = assay: self-aminoacylation, catalytic enhancement (BFO) (fold over background); higher = more active; k-Seq, kA / k0A0; sequences stand for … in GGGAAUGGAUCCACAUCUACGAAUUC…UUCACUGCAGACUUGACGAAGCUG
How it was run: as §1

biotinyl-Ile-oxazolone = assay: self-aminoacylation, catalytic enhancement (BIO) (fold over background); higher = more active; k-Seq, kA / k0A0; sequences stand for … in GGGAAUGGAUCCACAUCUACGAAUUC…UUCACUGCAGACUUGACGAAGCUG
How it was run: as §1

biotinyl-Met-oxazolone = assay: self-aminoacylation, catalytic enhancement (BMO) (fold over background); higher = more active; k-Seq, kA / k0A0; sequences stand for … in GGGAAUGGAUCCACAUCUACGAAUUC…UUCACUGCAGACUUGACGAAGCUG
How it was run: as §1

biotinyl-Leu-oxazolone = assay: self-aminoacylation, catalytic enhancement (BLO) (fold over background); higher = more active; k-Seq, kA / k0A0; sequences stand for … in GGGAAUGGAUCCACAUCUACGAAUUC…UUCACUGCAGACUUGACGAAGCUG
How it was run: as §1

biotinyl-Trp-oxazolone = assay: self-aminoacylation, catalytic enhancement (BWO) (fold over background); higher = more active; k-Seq, kA / k0A0; sequences stand for … in GGGAAUGGAUCCACAUCUACGAAUUC…UUCACUGCAGACUUGACGAAGCUG
How it was run: as §1

| Sequence | self-aminoacylation (biotinyl-Val-oxazolone) | self-aminoacylation (biotinyl-Phe-oxazolone) | self-aminoacylation (biotinyl-Ile-oxazolone) | self-aminoacylation (biotinyl-Met-oxazolone) | self-aminoacylation (biotinyl-Leu-oxazolone) | self-aminoacylation (biotinyl-Trp-oxazolone) |
| --- | --- | --- | --- | --- | --- | --- |
| AAGUUUGCUAAUGGUCGCCAG [Fam3.1 aminoacylation ribozyme variant] | 0.896 | 5.81 | 1.1 | 1.09 | 1.11 | 1.52 |
| AAGUUUGCUAAUUCUCGCAAG [Fam3.1 aminoacylation ribozyme variant] | 0.999 | 0.747 | 1.26 | 1.06 | 1.08 | 2.64 |
| AAGUUUGCUAAUUGUCGCAGG [Fam3.1 aminoacylation ribozyme variant] | 1.3 | 2.72 | 1.19 | 1.43 | 1.45 | 1.34 |
| AAGUUUGCUAAUUGUCGCAUG [Fam3.1 aminoacylation ribozyme variant] | 1.07 | 1.11 | 0.982 | 1.18 | 1.32 | 1.49 |
| AAGUUUGCUAAUUGUCGCUAG [Fam3.1 aminoacylation ribozyme variant] | 1.02 | 0.848 | 0.95 | 1 | 1.17 | 1.08 |
| AAGUUUGCUAAUUGUUGCAAG [Fam3.1 aminoacylation ribozyme variant] | 0.775 | 1.11 | 0.929 | 0.901 | 0.945 | 0.926 |
| AAGUUUGCUACUAGUCGCAAG [Fam3.1 aminoacylation ribozyme variant] | 0.838 | 1.13 | 0.824 | 0.802 | 0.766 | 0.775 |
| AAGUUUGCUACUAGUCGGAAG [Fam3.1 aminoacylation ribozyme variant] | 0.749 | 0.777 | 0.835 | 0.712 | 0.518 | 0.866 |
| AAGUUUGCUACUAGUCGUAAG [Fam3.1 aminoacylation ribozyme variant] | 0.783 | 0.833 | 0.772 | 0.848 | 0.759 | 0.867 |
| AAGUUUGCUACUUGUCGCAAG [Fam3.1 aminoacylation ribozyme variant] | 1.12 | 1.01 | 1.05 | 0.928 | 1.06 | 1.21 |
| AAGUUUGCUAGUAGUAGCAAG [Fam3.1 aminoacylation ribozyme variant] | 1.18 | 1.62 | 1.24 | 0.808 | 1 | 1.2 |
| AAGUUUGCUAGUAGUCCCAAG [Fam3.1 aminoacylation ribozyme variant] | 1.14 | 1.65 | 1.01 | 0.75 | 0.873 | 1.68 |
| AAGUUUGCUAGUAGUCGCAAG [Fam3.1 aminoacylation ribozyme variant] | 0.773 | 1.13 | 0.746 | 0.745 | 0.706 | 0.851 |
| AAGUUUGCUAUUACUCGCAAG [Fam3.1 aminoacylation ribozyme variant] | 0.868 | 1.09 | 0.728 | 0.734 | 0.82 | 0.738 |
| AAGUUUGCUAUUAGGCGCAAG [Fam3.1 aminoacylation ribozyme variant] | 0.681 | 0.81 | 0.746 | 0.591 | 0.546 | 0.841 |
| AAGUUUGCUAUUAGUCGCAAG [Fam3.1 aminoacylation ribozyme variant] | 0.823 | 1.08 | 0.848 | 0.814 | 0.76 | 0.826 |
| AAGUUUGCUAUUAGUCGCCAG [Fam3.1 aminoacylation ribozyme variant] | 0.818 | 0.947 | 1.01 | 0.864 | 1.12 | 0.849 |
| AAGUUUGCUAUUAGUCUCAAG [Fam3.1 aminoacylation ribozyme variant] | 1.07 | 1.66 | 0.998 | 0.976 | 0.928 | 0.975 |
| AAGUUUGCUCAUACUCGCAAG [Fam3.1 aminoacylation ribozyme variant] | 0.752 | 0.813 | 0.777 | 0.742 | 0.715 | 0.748 |
| AAGUUUGCUCAUAGUAGCAAG [Fam3.1 aminoacylation ribozyme variant] | 1.09 | 1.58 | 0.928 | 0.727 | 0.817 | 0.786 |
| AAGUUUGCUCAUAGUUGCAAG [Fam3.1 aminoacylation ribozyme variant] | 0.772 | 1.04 | 0.916 | 0.916 | 0.896 | 0.888 |
| AAGUUUGCUGAUAGCCGCAAG [Fam3.1 aminoacylation ribozyme variant] | 0.968 | 1.49 | 0.846 | 0.91 | 0.736 | 0.586 |
| AAGUUUGCUGAUAGUAGCAAG [Fam3.1 aminoacylation ribozyme variant] | 1.24 | 1.41 | 0.892 | 1.07 | 0.88 | 1.05 |
| AAGUUUGCUGAUAGUCACAAG [Fam3.1 aminoacylation ribozyme variant] | 1.28 | 1.23 | 1.15 | 1.2 | 1.08 | 1.62 |
| AAGUUUGCUGAUAGUCCCAAG [Fam3.1 aminoacylation ribozyme variant] | 0.847 | 0.972 | 1.17 | 0.626 | 0.786 | 1.08 |
